{
  "source": "patent US20130018172A1",
  "about": "“Metal Abstraction Peptide and Uses Thereof” (Echogen, Inc., priority 2011, published 2013)",
  "molecules": {"B1": {"name": "PRL-1: recombinant human PRL-1 (phosphatase of regenerating liver) wild type, C-terminal NCC motif (protein, UniProt Q93096 1-170, looked up)", "Protein tyrosine phosphatase …": "MARMNRPAPVEVTYKNMRFLITHNPTNATLNKFIEELKKYGVTTIVRVCEATYDTTLVEKEGIHVLDWPFDDGAPPSNQIVDDWLSLVKIKFREEPGCCIAVHCVAGLGRAPVLVALALIEGGMKYEDAVQFIRQKRRGAFNSKQLLYLEKYRPKMRLRFKDSNGHRNNC"}, "B2": {"name": "PRL-1-C170S: PRL-1 mutant, cysteine 170 replaced by serine (protein, UniProt Q93096 1-170, looked up, variant C170S)", "Protein tyrosine phosphatase …": "B1 Protein tyrosine phosphatase … with C170S"}, "B3": {"name": "PRL-1-H166A: PRL-1 mutant, histidine 166 of the NGH motif replaced by alanine (protein, UniProt Q93096 1-170, looked up, variant H166A)", "Protein tyrosine phosphatase …": "B1 Protein tyrosine phosphatase … with H166A"}, "B4": {"name": "Apo PRL-1: PRL-1 without bound metal (protein, UniProt Q93096 1-170, looked up)", "Protein tyrosine phosphatase …": "B1 Protein tyrosine phosphatase …", "modifications": "metal-free"}},
  "key": {"[1]": {"experiment": "Metal displacement from Ni-purified PRL-1 (EDTA exchange, guanidinium hydrochloride and heat)", "type": "physicochemical", "description": "UV-Vis absorption spectra were used to measure the concentration of the PRL-1 protein. The concentrations of purified PRL-1 analogs were measured at 280 nm and calculated using an extinction coefficient of 19420 M^−1 cm^−1. Because of possible metal-protein absorption interferences in the high 200 nm region, the validity of the UV-Vis quantification method was confirmed by the Bradford method. Spectra of PRL-1 analogs at concentrations of 10, 5, 2.5, and 1.25 mg/mL were collected on a Cary 100 UV-Vis spectrophotometer from 800 to 200 nm. […] The resulting spectra were resolved and peak positions were evaluated using GRAMS/AI 7.00 software. Three methods were aimed at metal displacement. In the first, PRL-1-WT (e.g., wild type) samples were reduced using 20 mM β-mercaptoethanol (BME), and imidazole was added to a concentration of 10 mM. For 0.5 mM protein samples, this corresponds to 400-fold solution excess of BME to compete with the two C-terminal cysteine thiols and a 200-fold solution excess of imidazole to compete with the single C-terminal histidine imidazole side chain. New baselines were taken and the spectra recalculated. In the second method, baselines were recalculated for buffer containing 100 μM EDTA, and the spectrum for the PRL-1-WT sample that was exchanged ten million fold in 100 μM EDTA was recorded. Finally, 10 mg/mL protein samples were denatured in 5.6 M guanidinium hydrochloride and heated to 90° C., new baselines were taken, and the spectra were collected at 0, 2, 4 and 6 hrs.\nNi binding in PRL-1 was not affected by reduction of the disulfide bond at PRL-1's active site. […] Subtraction of the reduced spectrum from the oxidized confirms that there was no significant difference in metal coordination between the reduced and oxidized WT samples. To examine whether a small contribution from a His is made, additional imidazole was added to the solution to increase the signal strength of a transient association. […] Additionally, no spectral change was observed when the Ni-purified sample was reduced in the presence of imidazole. […]"}, "[2]": {"experiment": "ICP-MS of metal bound to purified PRL-1 (Zn)", "type": "binding", "description": "(§1) ICP-MS was used to characterize the bound metal. Purified protein samples were digested in concentrated nitric acid in PFA microcentrifuge tubes (Savillex, #s 7240, 7241) at 68±1° C. for 16.5±0.7 hours. Based on protein quantification prior to digestion, the sample was then diluted to 1.5 μM in 20 mM ammonium bicarbonate, pH 8.2, filtered through a 0.2 μm nylon filter, and injected into a VG Elemental VGII+XS Inductively-Coupled Plasma-Mass Spectrometer fitted with a microconcentric nebulizer. A minimum of two separately prepared samples were analyzed for each protein variant. Each sample was scanned twice and standards were run before, between, and after each sample scan. Drift was monitored during washes between scans of both sample and standard injections.\nTo confirm that the chromophore arises from protein abstraction of the metal from the charged IMAC matrix, samples were subjected to ICP-MS for semi-quantitative analysis. […] On average 500 μM Ni-purified protein samples were digested in nitric acid for 16 h at 70° C. were determined to contain approximately 180 μM Ni, yielding a Ni to protein stoichiometry of 1:2.7+/−0.7. Zn was also detected in the Ni-purified samples at approximately 60 μM. […] Because ICP-MS analysis is conducted in a flow of Ar and the most abundant isotope of Ar has the same mass as Ca, Ca binding cannot be determined from the primary mass signal. […]"}, "[3]": {"experiment": "ICP-MS of metal bound to purified PRL-1 variants (Ni)", "type": "binding", "settings": "for Ni bound, ICP-MS: PRL-1 variants purified on Ni-IMAC, analyzed in parallel", "description": "Because the histidine mutant retained tight binding, mutations at C170 and/or C171 were made.\nas §1\nTo confirm that the chromophore arises from protein abstraction of the metal from the charged IMAC matrix, samples were subjected to ICP-MS for semi-quantitative analysis. As extensive washing is used to remove background metals, the values obtained from this method inherently underestimate the amount of metal bound, but can be used to assess the relative affinity of different metals for the protein. Additionally, to identify an endogenous metal ligand that may have been bound to PRL-1 during expression in the cells, ICP-MS was used to look for the presence of a transition metal from the first two rows in the periodic table as well as other common biologically relevant metals. […] On average 500 μM Ni-purified protein samples were digested in nitric acid for 16 h at 70° C. were determined to contain approximately 180 μM Ni, yielding a Ni to protein stoichiometry of 1:2.7+/−0.7. Zn was also detected in the Ni-purified samples at approximately 60 μM. […] Because ICP-MS analysis is conducted in a flow of Ar and the most abundant isotope of Ar has the same mass as Ca, Ca binding cannot be determined from the primary mass signal. Nonetheless, because a much higher amount of Ca was present in the cell culture media compared to Zn and yet the ICP-MS signal corresponds largely to zinc, the protein is unlikely to bind calcium."}, "[4]": {"experiment": "UV-Vis absorption spectroscopy of Ni coordination by PRL-1 variants", "type": "binding", "settings": "relative to wild-type, Ni-purified", "description": "UV-Vis absorption spectra were used to measure the concentration of the PRL-1 protein. The concentrations of purified PRL-1 analogs were measured at 280 nm and calculated using an extinction coefficient of 19420 M^−1 cm^−1. Because of possible metal-protein absorption interferences in the high 200 nm region, the validity of the UV-Vis quantification method was confirmed by the Bradford method. Spectra of PRL-1 analogs at concentrations of 10, 5, 2.5, and 1.25 mg/mL were collected on a Cary 100 UV-Vis spectrophotometer from 800 to 200 nm. […] The resulting spectra were resolved and peak positions were evaluated using GRAMS/AI 7.00 software. Three methods were aimed at metal displacement. […] In the second method, baselines were recalculated for buffer containing 100 μM EDTA, and the spectrum for the PRL-1-WT sample that was exchanged ten million fold in 100 μM EDTA was recorded. […]\nAccordingly, characterization of metal coordination by PRL-1 was determined with UV-Vis absorption spectroscopy. The metal coordination geometry employed by PRL-1 and its mutants was analyzed using UV-Vis absorption spectroscopy at 800-200 nm. Absorption spectra of PRL-1 produced peaks at 280 and 220 nm, which arise from aromatic and peptide bonds within the protein and correspond well with the concentration determined using the Bradford assay. […]"}, "[5]": {"experiment": "Solubility of PRL-1 on loss of metal", "type": "physicochemical", "settings": "metal-free protein"}},
  "note": "Positions count from the first letter of the chain named. Names and notes keep the numbering of the source.",
  "data": [
    {"molecule": "B1", "values": [
      {"measurement": "loss of peaks at 318, 421 and 526 nm (Ni release)", "setting": "[1]; 5.6 M guanidinium hydrochloride at 90° C.", "value": "only gradually disappeared over 6 hrs"},
      {"measurement": "reversibility of Ni binding", "setting": "[1]; pH 7.4", "value": "irreversible"},
      {"measurement": "effect of EDTA exchange on the absorption spectrum", "setting": "[1]; ten million-fold exchange into buffer containing 100 μM EDTA", "value": "little effect on the spectrum"},
      {"measurement": "Zn detected in Ni-purified samples, ICP-MS", "setting": "[2]; Ni-IMAC purified", "value": "approximately 60 μM"},
      {"measurement": "Zn content after Zn-IMAC purification, ICP-MS", "setting": "[2]; Zn-IMAC purified", "value": 270, "unit": "µM"},
      {"measurement": "Ni bound, ICP-MS", "setting": "[3]", "value": "approximately 120 μM"},
      {"measurement": "Ni level in Zn-IMAC purified protein, ICP-MS", "setting": "[3]; Zn-IMAC purified", "value": "only background levels"},
      {"measurement": "Ni content of Ni-purified protein samples, ICP-MS", "setting": "[3]; on average 500 μM Ni-purified protein, digested in nitric acid 16 h at 70° C., semi-quantitative", "value": "approximately 180 μM"}
    ]},
    {"molecule": "B2", "values": [
      {"measurement": "Ni bound, ICP-MS", "setting": "[3]", "value": "No Ni was detected"}
    ]},
    {"molecule": "B3", "values": [
      {"measurement": "decrease in signal measured by absorption spectroscopy", "setting": "[4]", "value": 20, "unit": "%"},
      {"measurement": "Ni bound, ICP-MS", "setting": "[3]", "value": "~60", "unit": "µM"}
    ]},
    {"molecule": "B4", "values": [
      {"measurement": "solubility", "setting": "[5]", "value": "poorly soluble"}
    ]}
  ]
}
